Measured values taken from patent publication US20260250421A1 (BIOCYTOGEN PHARMACEUTICALS BEIJING, published 2026).
Numbering of substitutions follows the chain as printed.

T1: His-tagged human PTK7 protein (human, UniProt Q13308 31-704)
T1 construct: Bought protein; also called hPTK7-His; not shown: His tag
T1 sequence: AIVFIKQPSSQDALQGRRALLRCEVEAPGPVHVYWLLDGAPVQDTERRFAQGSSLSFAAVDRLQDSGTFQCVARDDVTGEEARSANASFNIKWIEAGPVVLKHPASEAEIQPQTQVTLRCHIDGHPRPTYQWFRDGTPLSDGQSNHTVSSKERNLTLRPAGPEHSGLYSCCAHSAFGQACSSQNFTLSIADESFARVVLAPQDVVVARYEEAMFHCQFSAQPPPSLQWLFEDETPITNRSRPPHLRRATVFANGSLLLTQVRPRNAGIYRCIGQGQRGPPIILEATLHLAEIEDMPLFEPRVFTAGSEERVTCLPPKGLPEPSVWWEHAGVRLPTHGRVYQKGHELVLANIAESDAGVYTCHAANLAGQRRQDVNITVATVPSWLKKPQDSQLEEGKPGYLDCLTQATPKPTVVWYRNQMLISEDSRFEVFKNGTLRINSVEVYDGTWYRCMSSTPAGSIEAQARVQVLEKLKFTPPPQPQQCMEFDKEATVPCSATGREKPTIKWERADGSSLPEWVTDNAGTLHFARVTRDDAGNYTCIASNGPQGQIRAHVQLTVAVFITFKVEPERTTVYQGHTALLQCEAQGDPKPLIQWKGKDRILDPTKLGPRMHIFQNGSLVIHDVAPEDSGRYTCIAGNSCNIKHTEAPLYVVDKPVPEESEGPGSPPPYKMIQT

T2: dog PTK7 on dog cancer cell lines (dog, UniProt A0A8I3N574 31-1070)
T2 construct: whole, on cells; Endogenous protein on dog tumour cell lines; also called PTK7 on CMT-U27 and D-17 cells; dog cancer cells
T2 sequence: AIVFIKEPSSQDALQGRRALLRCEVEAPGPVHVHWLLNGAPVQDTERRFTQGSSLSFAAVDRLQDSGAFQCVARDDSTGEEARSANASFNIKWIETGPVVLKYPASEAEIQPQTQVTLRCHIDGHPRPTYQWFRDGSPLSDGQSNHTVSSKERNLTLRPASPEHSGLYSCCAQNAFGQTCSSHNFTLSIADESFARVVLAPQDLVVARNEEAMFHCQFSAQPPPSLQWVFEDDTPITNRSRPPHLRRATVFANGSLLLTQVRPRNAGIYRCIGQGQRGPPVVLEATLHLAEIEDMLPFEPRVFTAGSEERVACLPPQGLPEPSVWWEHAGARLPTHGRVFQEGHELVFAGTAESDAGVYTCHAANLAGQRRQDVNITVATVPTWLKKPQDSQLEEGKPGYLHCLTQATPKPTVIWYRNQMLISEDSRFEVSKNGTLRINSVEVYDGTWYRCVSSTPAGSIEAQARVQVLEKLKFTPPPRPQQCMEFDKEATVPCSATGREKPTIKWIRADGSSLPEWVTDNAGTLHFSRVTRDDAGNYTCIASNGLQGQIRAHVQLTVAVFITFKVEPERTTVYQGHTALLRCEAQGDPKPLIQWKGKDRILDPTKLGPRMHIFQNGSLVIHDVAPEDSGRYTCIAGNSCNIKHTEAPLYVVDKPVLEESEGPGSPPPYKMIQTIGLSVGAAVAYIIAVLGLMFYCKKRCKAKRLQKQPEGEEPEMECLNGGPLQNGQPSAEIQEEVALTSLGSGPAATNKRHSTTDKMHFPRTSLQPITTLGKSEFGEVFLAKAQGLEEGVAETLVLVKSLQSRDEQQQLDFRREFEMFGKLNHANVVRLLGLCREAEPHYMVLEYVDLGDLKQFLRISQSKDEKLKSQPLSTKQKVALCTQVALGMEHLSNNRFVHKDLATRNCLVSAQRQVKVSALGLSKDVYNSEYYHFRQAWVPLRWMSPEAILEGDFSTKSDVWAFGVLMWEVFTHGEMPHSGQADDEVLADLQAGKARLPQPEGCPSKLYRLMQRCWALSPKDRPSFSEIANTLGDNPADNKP

B1: 1A7 (antibody, human IgG1, V domains shown)
VH: QVQLVESGGGVVQPGRSLRLSCAASGFTFSNYGMHWVRQAPGKGLEWVAVIYYDGSNKFYADSVKGRFTISRDNSKNTLYLQMSSLRAEDTAVYYCARDVAPPGSRAEYFHHWGQGTLVTVSS
VL: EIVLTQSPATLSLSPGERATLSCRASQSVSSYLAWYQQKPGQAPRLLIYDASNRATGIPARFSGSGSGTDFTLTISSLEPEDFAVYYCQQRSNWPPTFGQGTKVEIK
notes: also called anti-PTK7 antibody 1A7
B2: 2D11 (antibody, V domains shown)
VH: B1 VH with N31S, Y52F, F59Y, S84N, A92S, P102A, H111Q, H112N
VL: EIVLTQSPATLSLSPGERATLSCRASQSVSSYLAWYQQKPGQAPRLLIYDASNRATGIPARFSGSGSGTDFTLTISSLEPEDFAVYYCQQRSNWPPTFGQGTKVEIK
notes: also called anti-PTK7 antibody 2D11
B3: 2F5 (antibody, V domains shown)
VH: B1 VH with A23V, V50I, F59Y, S84N, P102A, P103A, F110L
VL: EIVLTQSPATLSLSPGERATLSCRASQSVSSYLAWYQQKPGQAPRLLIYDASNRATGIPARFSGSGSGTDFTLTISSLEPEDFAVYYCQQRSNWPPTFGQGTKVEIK
notes: also called anti-PTK7 antibody 2F5
B4: 2A5 (antibody, V domains shown)
VH: B1 VH with E6Q, Y52W, S56R, F59Y, S84N, P103A, H111Q, H112N
VL: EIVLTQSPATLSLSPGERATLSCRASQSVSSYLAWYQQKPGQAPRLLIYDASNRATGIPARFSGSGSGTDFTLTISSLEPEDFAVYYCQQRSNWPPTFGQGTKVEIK
notes: also called anti-PTK7 antibody 2A5
B5: 3C4 (antibody, V domains shown)
VH: QVQLEQSRAEVKKPGESLRISCKGSGYSFTSYWISWVRQMPGKGLEWMGRIDPSDSYTNYNPSFQGHVTISADKSISTAYLQWSSLKASDTAMYYCARRDGSYFDFDYWGQGTLVTVSS
VL: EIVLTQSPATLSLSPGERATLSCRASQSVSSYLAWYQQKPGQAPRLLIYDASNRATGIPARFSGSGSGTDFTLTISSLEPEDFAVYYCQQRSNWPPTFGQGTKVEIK
notes: also called anti-PTK7 antibody 3C4
B6: 3E6 (antibody, V domains shown)
VH: B5 VH with E5V, Q6E, R8G, K23R, N59K, N61S, S102D
VL: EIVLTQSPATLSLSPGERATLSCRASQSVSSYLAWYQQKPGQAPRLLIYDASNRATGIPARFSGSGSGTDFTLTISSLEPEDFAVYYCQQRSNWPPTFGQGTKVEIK
notes: also called anti-PTK7 antibody 3E6
B7: 1F2 (antibody, V domains shown)
VH: QVQLVQSGGGLVQPGGSLRLSCAASGFTFSRYEMNWVRQAPGKGLEWVSYINSIGSAINYADSVKGRFTISRDNAKNSLYLQMRSLRAEDTAVYYCVREDNWNPGYWGQGTLVTVSS
VL: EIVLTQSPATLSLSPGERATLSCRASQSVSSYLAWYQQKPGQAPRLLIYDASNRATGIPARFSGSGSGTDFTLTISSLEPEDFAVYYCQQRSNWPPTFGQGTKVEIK
notes: also called anti-PTK7 antibody 1F2
B8: 1A11 (antibody, V domains shown)
VH: QVQLVQSGPGLVKPSETLSLTCTVSGGSINSYYWNWIRQPPGKGLEWIGYIYYSGSTNYNPSLKSRVTISVDTSKNQFSLKLSSVTAADTAVYYCARDPHDYIRGHFDLWGRGTLFTVSS
VL: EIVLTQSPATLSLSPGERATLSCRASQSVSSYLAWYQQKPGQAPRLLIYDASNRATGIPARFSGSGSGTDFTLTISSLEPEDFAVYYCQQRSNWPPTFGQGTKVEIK
notes: also called anti-PTK7 antibody 1A11

Target: T1, His-tagged human PTK7 protein
Experiment: SPR Biacore 8K, Ab on Protein A chip
Description: Purified anti-PTK7 antibodies were diluted to 1 μg/mL and then injected into the Biacore™ 8K biosensor at 10 μL/min for about 50 seconds to achieve a desired protein density (e.g., about 50 response units (RU)). The His-tagged PTK7 protein at a concentration of 200 nM or 0 nM was then injected at 30 μL/min for 180 seconds. Dissociation was monitored for 400 seconds. The chip was regenerated after the last injection of each titration with glycine (pH 2.0, 30 μL/min for 30 seconds).

Row | Kd [nM] | koff [s⁻¹] | kon [M⁻¹ s⁻¹] | Binder
1 | 40.9 | 0.00425 | 104000 | B1
2 | 8.11 | 0.000249 | 30600 | B2
3 | 109 | 0.00388 | 35600 | B3
4 | 25.9 | 0.00281 | 108000 | B4
5 | 25.4 | 0.00237 | 93200 | B5
6 | 3.44 | 0.000454 | 132000 | B6
7 | 69.8 | 0.012 | 172000 | B7
8 | 41 | 0.00318 | 77600 | B8

Target: T2, dog PTK7 on dog cancer cell lines
Experiment: flow cytometry, CMT-U27 dog cells, Ab 5 ug/mL
Description: The binding activity of anti-PTK7 antibodies to cancer cell lines was verified by flow cytometry. […] Purified anti-PTK7 antibody with a concentration of 5 μg/mL was added to each well and was incubated at 4° C. for 30 minutes. […] The cells were collected, and the mean fluorescence intensity (MFI) was determined. Human IgG1 was used as ISO control.

Row | MFI | Binder
9 | 56700 | B1
10 | 72200 | B2
11 | 81300 | B3
12 | 76400 | B4
13 | 37400 | B5
14 | 94500 | B6
15 | 45800 | B7
16 | 75600 | B8

Target: T1, His-tagged human PTK7 protein
Experiment: BLI Octet binning on hPTK7-His; competitor 1A11
Description: Relative positions of target protein epitope between a pair of purified anti-PTK7 antibodies were analyzed by Biolayer Interferometry (BLI) using ForteBio Octet system at 30° C. A total of […] purified antibodies were used: 1A7, 1A11, 1F2, 2A5, 2D11, 2F5, 3C4 and 3E6.
1×HBS-EP+ buffer (10 mM 4-(2-hydroxyethyl)-1-piperazineethanesulfonic acid (HEPES), 150 mM NaCl, 3 mM ethylenediaminetetraacetic acid (EDTA) and 0.05% P20, pH7.4) diluted from HBS-EP+ buffer (10×) was used as the running buffer throughout the experiment. His-tagged human PTK7 protein was captured at a flow rate of 10 μL/min, and 200 nM of antibody (Analyte 1) was injected at a flow rate of 30 μL/min to bind the ligand. Another antibody (Analyte 2) was injected under the same conditions to determine whether the binding of different antibodies interfered with each other. The binding time was 300 s for each antibody.
The binding value of each antibody was obtained using Data Analysis HT 12.0. To quantify the interference of one antibody binding to another, a binding ratio was calculated to compare each pair of antibodies. The binding ratio is defined as the binding value of the second antibody (Analyte 2), divided by the binding value of the first antibody (Analyte 1). […] In general, antibody pairs that interfere with each other have the same or overlapping epitopes.

Row | binding ratio | Binder
17 | 0.74 | B1
18 | 0.83 | B2
19 | 0.71 | B3
20 | 0.62 | B4
21 | 0.84 | B5
22 | 0.71 | B6
23 | 0.64 | B7
24 | -0.01 | B8
